The assay concerns the target PD-L1 (soluble; 'PD-L1 ligand' of the Octet assay) (UniProt Q9NZQ7 19-238, limits assumed). Description: BLI (Octet RED 96), antibody on anti-human IgG capture sensor, PD-L1 in solution, 1:1 fit. On the procedure: Affinity Measurement: The affinity measurement was conducted with Octet RED 96 (ForteBio) instrument at 30 degree Celsius. Briefly, anti-human IgG capture sensor (AHC from ForteBio cat #18-5060) was equilibrated with assay buffer (1× dilution of 10× Kinetics Buffer (ForteBio, Cat #18-5032). Test antibody samples were diluted to 3 ug/mL and allowed to bind to the sensors for 5 min. The sensors were then washed in assay buffer for 3 minutes, and PD-L1 ligand diluted at different concentrations were allowed to bind to the mAb coated on the sensors for 5 minutes. Afterwards, dissociation was followed for 10 minutes in the assay buffer. The sensors could be regenerated by washing in glycine buffer and assay buffer 3 times. The data were fitted with 1:1 binding model using the ForteBio software.
In general terms: BLI is a label-free optical method that tracks binding on a fibre tip over time.

As usually defined, the Kd is the free concentration of one partner at which half of the binding sites on the other are occupied at equilibrium, for simple one-to-one binding. What is called koff is the first-order rate constant of dissociation. The kon is the second-order rate constant of association. A high value points to fast association.

PD-L1 (soluble; 'PD-L1 ligand' of the Octet assay), sequence (Q9NZQ7 19-238 limits assumed): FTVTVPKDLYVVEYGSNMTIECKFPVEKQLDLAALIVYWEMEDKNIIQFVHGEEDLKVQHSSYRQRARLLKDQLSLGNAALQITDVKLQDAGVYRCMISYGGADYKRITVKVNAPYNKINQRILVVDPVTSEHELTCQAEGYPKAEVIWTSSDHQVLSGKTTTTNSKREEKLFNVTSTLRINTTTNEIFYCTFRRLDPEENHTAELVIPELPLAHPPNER

B1: 111F1 chimeric anti-PD-L1 antibody (antibody, V domains shown)
VH: CQSVKESEGGLFKPTDTLTLTCTVSGIDLNSIAISWVRQAPGNGLEWIGTIGSSGSAYYASWAKSRSTITRNTSENTVTLEMTSLTAADTATYFCAKEILYYGMDLWGPGTLVTVSS
VL: DPVMTQTPASVSEPVGGTVTINCQASQSISSYLAWYQQKPGQRPKLLIYAASNVEPGVPSRFRGRGSGTQFTLTISDLECDDAATYYCQSTYGSTGGGDYGNAFGGGTKVVVVR
In turn, B1 showed a Kd of 0.162 nM, a koff of 6.2e-05 s⁻¹ and a kon of 769000 M⁻¹ s⁻¹.

These data come from US20190106494A1 (published 2019).
